T1: cynomolgus SIRPα extracellular domain + His-tag (NP_001271679) (cynomolgus monkey)
T1 construct: also called CySIRPα NP_001271679; cynoSIRPα
T1 chain: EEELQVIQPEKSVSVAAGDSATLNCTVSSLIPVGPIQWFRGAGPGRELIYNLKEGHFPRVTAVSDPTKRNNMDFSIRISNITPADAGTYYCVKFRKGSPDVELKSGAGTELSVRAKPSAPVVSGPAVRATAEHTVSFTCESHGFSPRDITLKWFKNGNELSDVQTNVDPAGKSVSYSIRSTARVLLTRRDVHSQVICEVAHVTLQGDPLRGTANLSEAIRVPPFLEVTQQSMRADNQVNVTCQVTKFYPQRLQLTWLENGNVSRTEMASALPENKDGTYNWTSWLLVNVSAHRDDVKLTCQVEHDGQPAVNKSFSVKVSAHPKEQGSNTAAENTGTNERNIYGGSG

T2: cynomolgus SIRPα extracellular domain + His-tag (EGM_02252) (cynomolgus monkey)
T2 construct: also called CySIRPα EGM_02252; cynoSIRPα
T2 chain: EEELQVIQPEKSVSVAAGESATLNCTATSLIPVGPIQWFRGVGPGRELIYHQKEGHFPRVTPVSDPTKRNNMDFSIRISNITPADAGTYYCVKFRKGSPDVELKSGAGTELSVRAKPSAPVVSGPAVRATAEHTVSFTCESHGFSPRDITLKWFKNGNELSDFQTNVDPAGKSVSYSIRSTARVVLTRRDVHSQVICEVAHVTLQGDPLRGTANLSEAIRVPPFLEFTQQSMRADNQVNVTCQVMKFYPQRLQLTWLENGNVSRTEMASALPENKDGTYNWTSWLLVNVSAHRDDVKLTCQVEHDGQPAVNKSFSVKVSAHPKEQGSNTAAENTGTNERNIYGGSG

T3: cynomolgus SIRPα extracellular domain + His-tag (XP_015313155) (cynomolgus monkey)
T3 construct: also called CySIRPα XP_015313155; cynoSIRPα
T3 chain: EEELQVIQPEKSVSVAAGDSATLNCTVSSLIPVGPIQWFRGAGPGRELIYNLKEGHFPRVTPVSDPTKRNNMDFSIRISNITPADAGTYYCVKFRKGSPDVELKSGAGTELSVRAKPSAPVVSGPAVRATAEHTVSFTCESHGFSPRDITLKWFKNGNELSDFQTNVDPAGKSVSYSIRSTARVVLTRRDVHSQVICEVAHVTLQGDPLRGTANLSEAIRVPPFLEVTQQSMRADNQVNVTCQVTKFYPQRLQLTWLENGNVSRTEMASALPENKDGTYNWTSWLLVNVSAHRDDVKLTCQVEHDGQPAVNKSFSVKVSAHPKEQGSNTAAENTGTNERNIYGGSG

T4: cynomolgus SIRPβ1v3 extracellular domain + His-tag (XP_005568593) (cynomolgus monkey)
T4 construct: also called Cyno SIRPβ1v3; cynoSIRPβ1v3
T4 chain: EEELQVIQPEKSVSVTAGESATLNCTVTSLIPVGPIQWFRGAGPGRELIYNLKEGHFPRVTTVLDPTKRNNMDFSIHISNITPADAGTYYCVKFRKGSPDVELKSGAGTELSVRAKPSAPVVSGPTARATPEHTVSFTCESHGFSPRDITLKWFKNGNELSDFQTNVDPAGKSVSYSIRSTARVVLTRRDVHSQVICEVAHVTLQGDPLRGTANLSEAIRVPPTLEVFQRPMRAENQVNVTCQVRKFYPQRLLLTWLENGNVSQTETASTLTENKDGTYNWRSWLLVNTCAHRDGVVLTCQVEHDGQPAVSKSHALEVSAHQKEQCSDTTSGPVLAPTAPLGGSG

T5: cynomolgus SIRPγ extracellular domain + His-tag (XP_005568591) (cynomolgus monkey, UniProt Q9P1W8 29-359 (human entry))
T5 construct: also called Cyno SIRPγ; cynoSIRPγ
T5 chain: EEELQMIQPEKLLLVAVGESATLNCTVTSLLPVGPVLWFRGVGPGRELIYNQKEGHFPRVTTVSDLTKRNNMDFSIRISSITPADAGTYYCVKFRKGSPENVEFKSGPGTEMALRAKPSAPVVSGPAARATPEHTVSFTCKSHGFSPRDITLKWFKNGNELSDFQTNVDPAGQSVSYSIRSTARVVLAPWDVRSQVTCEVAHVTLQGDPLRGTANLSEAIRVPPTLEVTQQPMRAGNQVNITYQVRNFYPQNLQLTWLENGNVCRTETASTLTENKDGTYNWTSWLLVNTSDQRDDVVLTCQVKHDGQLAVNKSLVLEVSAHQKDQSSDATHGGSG


Tests used:
[1] = target: T6, full-length human SIRPγ N→D on Expi-CHO cells (human, UniProt Q9P1W8 29-387); assay: flow cytometry, Expi-CHO cells expressing full-length human SIRPγ N→D
T6 construct: the entry already carries the change (PENV to PEDV)
T6 sequence (Q9P1W8 29-387 N129D): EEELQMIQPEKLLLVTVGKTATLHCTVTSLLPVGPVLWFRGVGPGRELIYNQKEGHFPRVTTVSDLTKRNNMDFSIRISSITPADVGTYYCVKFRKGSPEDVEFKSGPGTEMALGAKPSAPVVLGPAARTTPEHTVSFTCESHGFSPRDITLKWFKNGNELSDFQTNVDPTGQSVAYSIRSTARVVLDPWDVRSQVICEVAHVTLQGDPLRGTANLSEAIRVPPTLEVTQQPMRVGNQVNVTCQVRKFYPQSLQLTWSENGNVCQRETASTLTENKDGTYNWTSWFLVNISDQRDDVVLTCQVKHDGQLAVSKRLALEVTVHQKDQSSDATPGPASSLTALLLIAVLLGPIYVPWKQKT
Protocol: Expi-CHO parental cells are transduced with lentiviruses containing either full-length wild-type human SIRPγ ([…]) or full-length human SIRPγ with amino acid point mutations (Table 64) and sorted to achieve matching expression levels. These cells are blocked with donkey IgG and incubated on ice with increasing concentrations of antibodies for 60 minutes, washed and stained with AF647-conjugated donkey F(ab′)₂ anti-human IgG antibodies. Stained cells are washed, fixed, and analyzed by flow cytometry. Median fluorescent intensity is determined and used as a measure of antibody binding.

[2] = target: T1, cynomolgus SIRPα extracellular domain + …; assay: SPR, Ab captured, ECD-His analyte
Summary of the method: (§1)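 In HBS-EP+ (1×), captured antibodies are exposed to a twofold concentration series of SIRP extracellular domain carrying a His tag, using 300 s contact at 30 μl/min and a 600 s dissociation window.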

[3] = target: T2, cynomolgus SIRPα extracellular domain + …; assay: SPR, Ab captured, ECD-His analyte
Summary of the method: as §1

[4] = target: T3, cynomolgus SIRPα extracellular domain + …; assay: SPR, Ab captured, ECD-His analyte
Summary of the method: as §1

[5] = target: T4, cynomolgus SIRPβ1v3 extracellular …; assay: SPR, Ab captured, ECD-His analyte
Summary of the method: as §1

[6] = target: T5, cynomolgus SIRPγ extracellular domain + …; assay: SPR, Ab captured, ECD-His analyte
Summary of the method: as §1

[7] = target: T7, human SIRPβL/SIRPβ1v3 extracellular domain + His-tag (NP_001129316.1) (human, UniProt Q5TFQ8 30-371); assay: SPR, Ab captured, ECD-His analyte
T7 construct: also called hSIRPβ1v3; HuSIRPβ1v3
T7 sequence (Q5TFQ8 other isoform, or with tags, fused parts or gaps): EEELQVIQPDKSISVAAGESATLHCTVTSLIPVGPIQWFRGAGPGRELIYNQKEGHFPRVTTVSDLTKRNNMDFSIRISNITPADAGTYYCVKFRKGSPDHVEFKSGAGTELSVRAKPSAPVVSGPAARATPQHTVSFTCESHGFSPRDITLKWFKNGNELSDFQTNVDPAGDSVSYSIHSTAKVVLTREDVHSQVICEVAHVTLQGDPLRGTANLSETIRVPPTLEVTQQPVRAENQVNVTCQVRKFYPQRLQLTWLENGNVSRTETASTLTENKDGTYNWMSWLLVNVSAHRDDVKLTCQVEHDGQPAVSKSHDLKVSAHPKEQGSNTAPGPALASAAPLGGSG
Summary of the method: as §1

[8] = target: T8, human SIRPγ extracellular domain + His-tag (NP_061026.2) (human, UniProt Q9P1W8 29-360); assay: SPR, Ab captured, ECD-His analyte
T8 construct: also called hSIRPγ; HuSIRPγ
T8 sequence (Q9P1W8 29-360): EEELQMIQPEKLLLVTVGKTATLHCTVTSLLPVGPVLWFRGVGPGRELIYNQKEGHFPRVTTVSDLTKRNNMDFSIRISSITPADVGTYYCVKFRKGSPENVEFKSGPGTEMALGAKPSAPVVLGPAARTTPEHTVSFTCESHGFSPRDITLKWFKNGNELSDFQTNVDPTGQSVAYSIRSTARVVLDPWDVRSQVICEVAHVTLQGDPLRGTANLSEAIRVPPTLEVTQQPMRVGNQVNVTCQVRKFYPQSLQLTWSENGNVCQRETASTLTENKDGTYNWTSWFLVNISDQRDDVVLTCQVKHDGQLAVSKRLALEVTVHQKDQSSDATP
Summary of the method: as §1

binding result [1]	Kd [2] [nM]	Kd [3] [nM]	Kd [4] [nM]	Kd [5] [nM]	binding result [6]	binding result [7]	binding result [8]	Binder
no binding (tested: about 67 nM)	–	–	–	–	–	–	–	Antibody E (antibody, human IgG1, kappa, L234A L235A) heavy: not shown light: DIVMTQSPLSLPVTPGEPASISCKSSQSLLYSNGYNYLDWYLQRPGQSPQLLIYLGSNRASGVPDRFSGSGSGTDFTLKISRVEAEDVGVFYCMQALQTPLTFGGGTKVEIKRTVAAPSVFIFPPSDEQLKSGTASVVCLLNNFYPREAKVQWKVDNALQSGNSQESVTEQDSKDSTYSLSSTLTLSKADYEKHKVYACEVTHQGLSSPVTKSFNRGEC
no binding (tested: about 67 nM)	–	–	–	–	–	–	–	Antibody E22 (antibody, human IgG1, kappa, L234A L235A, V domains shown) VH: QVQLQESGPGLVKPSETLSLTCTVSGGSIRDYYWSWIRQPPGKGLEWIGFIYYNGRTFYQSSLKSRVTISLDTSKNQFSLKMTSVTAADTAVYYCARVRAYSGIGLDGTDVWGQGTTVTVSS VL: DIVMTQSPLSLPVTPGEPASISCRSSQSLLYSTGYTYLDWYLQRPGQSPQLLIYGGSSRASGVPDRFSGSGSGTDFTLKISRVEAEDVGVFYCGQALQTPLTFGQGTKVEIKR
–	336	258	165	246	no binding (tested: 1000 nM)	no binding (tested: 100 nM)	no binding (tested: 1000 nM)	Antibody A (antibody, human IgG1, kappa, L234A L235A) heavy: not shown light: DIQMTQSPSSLSASVGDRVTITCRASQDINNYLAWFQQKPGKAPKSLIYTASSLHSGVPSKFSGSGSGTDFTLTISSLQPEDFATYYCQQYVSYPYTFGQGTKLEIKRTVAAPSVFIFPPSDEQLKSGTASVVCLLNNFYPREAKVQWKVDNALQSGNSQESVTEQDSKDSTYSLSSTLTLSKADYEKHKVYACEVTHQGLSSPVTKSFNRGEC
–	378	249	180	271	no binding (tested: 1000 nM)	no binding (tested: 100 nM)	no binding (tested: 1000 nM)	Antibody A10 (antibody, human IgG1, kappa, L234A L235A) heavy: not shown light: DIQMTQSPSSLSASVGDRVTITCRASQDINNYLAWFQQKPGKAPKSLIYTASSLHSGVPSKFSGSGSGTDFTLTISSLQPEDFATYYCQQYVSYPYTFGQGTKLEIKRTVAAPSVFIFPPSDEQLKSGTASVVCLLNNFYPREAKVQWKVDNALQSGNSQESVTEQDSKDSTYSLSSTLTLSKADYEKHKVYACEVTHQGLSSPVTKSFNRGEC
